Experimental data: patent publication US20220281997A1 (NANJING GENSCRIPT BIOTECH, published 2022)

What was measured:
[1] = target: T1, His-tag camel-derived nanobody AS718 VHH-His (camel-derived); assay: indirect ELISA, AS718 VHH-His coated, hybridoma supernatant
T1 construct: Immunogen; recombinantly expressed with a C-terminal His tag; also called immunogen AS718; immunogen AS718 VHH-His; not shown: C-terminal His tag
Procedure: The rabbit spleen was extracted and homogenized to produce a single-cell suspension, and a single-cell suspension of myeloma cells was prepared at the same time. 1.0×10⁸ splenocytes were fused with 1.2×10⁵ myeloma cells by electrofusion; the fused cells were resuspended in 100 ml of DMEM/10% FBS culture medium containing hybridoma selective agents, thymidine, hypoxanthine and aminopterin, and transferred to a 150×96-well plate in a volume of 100 μl with a pipette; and the plate was incubated at 37° C. in 6% CO₂. After 9 days of incubation, the indirect ELISA was used to evaluate the binding ability of the antibody in the supernatant to VHH-His, indicating the presence of the antibody to VHH-His.
The ELISA plate was coated with 100 μl/well of 0.5 μg/ml VHH-His or His protein in PBS at 4° C. overnight; the plate was washed with PBS-T (0.05% Tween20) and blocked with 200 μl/well of PBST containing 1% BSA at 37° C. for 0.5 hours; the blocking solution was aspirated and discarded, and 100 μl of hybridoma cell culture supernatant was added to each well and then incubated at room temperature for 1 hour; after the incubation, the supernatant was discarded, and the plate was washed three times with PBST and incubated with 100 μl/well of goat anti-rabbit IgG conjugated with horseradish peroxidase (GenScript Goat Anti-Rabbit IgG Antibody (H&L) [HRP], pAb; CAT #: A00098) at 37° C. for 0.5 hours; the plate was washed five times with PBST, and then a TMB color developing solution was added; and the plate was incubated in the dark at room temperature for 15 minutes. The reaction was stopped by adding 50 μl of 1 M HCl stop solution. The plate was read at 450 nm using a microplate reader. In FIG. 3, by the mode of indirect ELISA, immunogen AS718 VHH-His was used to coat the ELISA detection plate, and the titers of the supernatant stock solutions of 15 parent clones were detected by OD450 reading, and the cross-reactions thereof with the His-tag protein were detected at the same time to exclude non-specific combinations. In the experiment, the positive serum was used as a positive control for immunogen AS718 VHH-His, and the Anti-His antibody was used as a positive control for detection target His-tag protein in the reverse screening. The detection value greater than 0.5 was determined to be positive, and the detection value less than 0.2 was determined to be negative.

AS588 VHH = target: T2, AS588 VHH (camel-derived); assay: indirect ELISA, VHH coated
T2 construct: One of the 10 different camel-derived nanobodies; not shown: His tag (VHH-His)
T2 sequence (VHH, as listed by the source): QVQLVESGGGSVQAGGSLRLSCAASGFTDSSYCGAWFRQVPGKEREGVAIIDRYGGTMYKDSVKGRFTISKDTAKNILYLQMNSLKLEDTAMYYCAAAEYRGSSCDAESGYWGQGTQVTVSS
Procedure: (§1) The ELISA plate was coated with 10 different VHHs at […] in 100 μl/well of PBS at 4° C. overnight, respectively; the plate was washed with PBS-T (0.05% Tween) and blocked with 200 μl/well of PBST containing 1% BSA at 37° C. for 0.5 hours; the blocking solution was aspirated and discarded, and 100 μl of 1 μg/ml purified antibodies were added to the first well, diluted in a 3-fold gradient for a total of 11 test concentration gradients and incubated at room temperature for 1 hour; the plate was washed three times with PBST and incubated with 100 μl/well of goat anti-rabbit IgG conjugated with horseradish peroxidase (GenScript Goat Anti-Rabbit IgG Antibody (H&L) [HRP], pAb; CAT #: A00098) at 37° C. for 0.5 hours; the plate was washed five times with PBST, and then a TMB color developing solution was added; and the plate was incubated in the dark at room temperature for 15 minutes. The reaction was stopped by adding 50 μl of 1 M HCl stop solution. The plate was read at 450 nm using a microplate reader; and the binding abilities of 15 clones to VHH-His were obtained (as shown in FIGS. 6a and 6b). […] On one hand, the affinities of the antibody of the same camel-derived nanobody to different camel-derived nanobodies were different; on the other hand, the affinities of different antibodies of camel-derived nanobodies to the same camel-derived nanobody were different. However, on the whole, all the 15 purified antibodies can be recognized with 10 different camel-derived nanobodies.

AS587 VHH = target: T3, AS587 VHH (camel-derived); assay: indirect ELISA, VHH coated
T3 construct: One of the 10 different camel-derived nanobodies; not shown: His tag (VHH-His)
T3 sequence (VHH, as listed by the source): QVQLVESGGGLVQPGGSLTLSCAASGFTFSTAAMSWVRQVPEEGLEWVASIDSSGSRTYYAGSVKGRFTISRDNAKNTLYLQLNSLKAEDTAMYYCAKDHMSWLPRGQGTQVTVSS
Procedure: as §1

AS154 VHH [2] = target: T4, AS154 VHH (camel-derived); assay: indirect ELISA, VHH coated
T4 construct: One of the 10 different camel-derived nanobodies; not shown: His tag (VHH-His)
T4 sequence (VHH, as listed by the source): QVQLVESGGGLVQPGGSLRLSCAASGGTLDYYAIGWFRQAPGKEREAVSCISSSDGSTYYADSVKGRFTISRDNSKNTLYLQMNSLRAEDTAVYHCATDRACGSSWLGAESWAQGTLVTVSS
Procedure: as §1

AS988 VHH = target: T5, AS988 VHH (camel-derived); assay: indirect ELISA, VHH coated
T5 construct: One of the 10 different camel-derived nanobodies; not shown: His tag (VHH-His)
T5 sequence (VHH, as listed by the source): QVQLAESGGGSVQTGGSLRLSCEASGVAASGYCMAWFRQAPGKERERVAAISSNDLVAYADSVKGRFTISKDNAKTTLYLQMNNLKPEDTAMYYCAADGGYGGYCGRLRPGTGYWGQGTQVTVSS
Procedure: as §1

AS673 VHH = target: T6, AS673 VHH (camel-derived); assay: indirect ELISA, VHH coated
T6 construct: One of the 10 different camel-derived nanobodies; not shown: His tag (VHH-His)
T6 sequence (VHH, as listed by the source): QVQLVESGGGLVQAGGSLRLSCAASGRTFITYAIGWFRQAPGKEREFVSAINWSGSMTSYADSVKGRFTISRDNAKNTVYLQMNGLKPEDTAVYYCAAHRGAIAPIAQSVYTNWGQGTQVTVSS
Procedure: as §1

AS519 VHH = target: T7, AS519 VHH (camel-derived); assay: indirect ELISA, VHH coated
T7 construct: One of the 10 different camel-derived nanobodies; not shown: His tag (VHH-His)
T7 sequence (VHH, as listed by the source): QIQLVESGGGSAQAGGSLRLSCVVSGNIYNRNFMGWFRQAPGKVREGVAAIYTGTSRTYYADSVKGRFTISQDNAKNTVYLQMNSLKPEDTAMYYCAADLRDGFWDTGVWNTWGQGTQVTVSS
Procedure: as §1

AS675 VHH [3] = target: T8, AS675 VHH (camel-derived); assay: indirect ELISA, VHH coated
T8 construct: One of the 10 different camel-derived nanobodies; not shown: His tag (VHH-His)
T8 sequence (VHH, as listed by the source): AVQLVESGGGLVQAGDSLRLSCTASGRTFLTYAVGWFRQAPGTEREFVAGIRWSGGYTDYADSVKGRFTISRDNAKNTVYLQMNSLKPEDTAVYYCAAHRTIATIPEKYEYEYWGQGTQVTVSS
Procedure: as §1

AS200 VHH [4] = target: T9, AS200 VHH (camel-derived); assay: indirect ELISA, VHH coated
T9 construct: One of the 10 different camel-derived nanobodies; not shown: His tag (VHH-His)
T9 sequence (VHH, as listed by the source): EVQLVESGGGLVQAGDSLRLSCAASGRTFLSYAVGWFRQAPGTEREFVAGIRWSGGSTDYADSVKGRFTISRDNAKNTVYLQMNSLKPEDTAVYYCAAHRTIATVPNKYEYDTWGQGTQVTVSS
Procedure: as §1

AS656 VHH = target: T10, AS656 VHH (camel-derived); assay: indirect ELISA, VHH coated
T10 construct: One of the 10 different camel-derived nanobodies; not shown: His tag (VHH-His)
T10 sequence (VHH, as listed by the source): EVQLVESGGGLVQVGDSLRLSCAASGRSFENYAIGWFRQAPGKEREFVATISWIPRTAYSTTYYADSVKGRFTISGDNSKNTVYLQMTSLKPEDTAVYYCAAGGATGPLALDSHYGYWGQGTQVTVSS
Procedure: as §1

AS325 VHH = target: T11, AS325 VHH (camel-derived); assay: indirect ELISA, VHH coated
T11 construct: One of the 10 different camel-derived nanobodies; not shown: His tag (VHH-His)
T11 sequence (VHH, as listed by the source): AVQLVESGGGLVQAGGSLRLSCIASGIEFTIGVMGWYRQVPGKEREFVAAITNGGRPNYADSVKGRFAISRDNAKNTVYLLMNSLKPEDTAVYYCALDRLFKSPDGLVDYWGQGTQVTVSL
Procedure: as §1

AS154 VHH [5] = target: T4, AS154 VHH; assay: SPR, Biacore 8K; VHH-His captured on anti-His antibody chip
Excerpt: (§2) The camel-derived nanobody with the lowest affinity to the cloned antibody was AS587, and the affinity reached 2.2 nmol.

AS675 VHH [6] = target: T8, AS675 VHH; assay: as above
Excerpt: as §2

AS200 VHH [7] = target: T9, AS200 VHH; assay: as above
Excerpt: as §2

Measured: binding result

T1 sequence (VHH, as listed by the source): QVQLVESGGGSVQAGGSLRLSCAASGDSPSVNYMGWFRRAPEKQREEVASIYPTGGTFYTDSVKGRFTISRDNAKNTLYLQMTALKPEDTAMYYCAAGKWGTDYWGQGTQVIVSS

B1: R166.H9 (antibody, V domains shown)
VH: QSLEESGGRLVTPGTPLTLTCTASGFSLNNYNMIWVRQAPGEGLEWIGMIGDGDDAAWYASWAKGRFTISKTSTTVDLEVTSLTTEDTAIYFCARYLSFTRLDLWGQGTLVTVSS
VL: AVLTQTPSPVSAAVGGTVTINCQSSQSVYHNNWLAWYQQKPGQPPKLLIYGAATLASGVPSRFKGSGSGTQFTFTITDVQCDDVGTYYCAGVYNDDSENAFGGGTEVVVKG
notes: Rabbit monoclonal; also called clone R166.H9
not listed: AS154 VHH [5] | AS675 VHH [6] | AS200 VHH [7]
binds: all other assays above

B2: R166.C5 (antibody, V domains shown)
VH: QSVEESGGRLVTPGTPLTLTCTVSGFSLRNFAMSWVRQAPGKGLEWIGIIYSGGTRDYATWAKGRFTISKTSTTVDLKMTSPTTEDTATYFCARDRSPDYSAAFLLWGQGTLVTVSS
VL: IVMTQTPSSKSVPVGDTVTINCQASESVYSNNHLAWFQQKPGQPPKLLIYSASTLESGVPSRFKGSGSGTQFTLTISGVQCDDAATYYCAGYKSSDTDGTSFGGGTEVVVKG
notes: Rabbit monoclonal; also called clone R166.C5; antibody clone R166.C5
binds: AS154 VHH [5] | AS675 VHH [6] | AS200 VHH [7]

B3: R166.A5 (antibody, V domains shown)
VH: QSVEESGGRLVTPGTPLTLTCTVSGFSLNNYTVIWVRQAPGKGLEWIGIIFGSGGTYYATWAEGRFTISRTSTTVDLKMTSPTTEDTATYFCARGYFGNTFWAMDPWGPGTLVTVSS
VL: NIVMTQTPASVSGAVGGTVTIKCQASQSISTYLSWYQQKPGQPPKLLIYQASELAYGVSSRFKGSGSGTEFTLTISGVECADAATYYCQQGYSDINVDNFFGGGTEVVVKG
notes: Rabbit monoclonal; also called clone R166.A5; antibody clone R166.A5
not listed: AS154 VHH [5] | AS675 VHH [6] | AS200 VHH [7]
binds: all other assays above

B4: R166.E5 (antibody, V domains shown)
VH: QSLEESGGRLVTPGTPLTLTCTASGFSLSGYYMIWVRQAPGKGLEYIGIVTSSGSTHYASWANGRFAISKTSSTTVDLKMPSLTTEDTATYFCAREGGWAFDLWGQGTLVTVSS
VL: QVLTQTPFSVSTAVGGTVTINCQSSESVANSNWLSWYQQKPGQPPKLLIYWASKLASGVPSRFSGSGSGTQFTLTISGVQCADAATYYCQGGYTSDRRAFGGGTEVVVKG
notes: Rabbit monoclonal; also called clone R166.E5
not listed: AS154 VHH [5] | AS675 VHH [6] | AS200 VHH [7]
binds: all other assays above

B5: R166.H10 (antibody, V domains shown)
VH: QSLEESGGRLVTPGTPLTLTCTASGFSLSSYWMSWVRQAPGKGLEYIGIISGSGSTYYATWAKGRFTISKTSSTTVDLKITSPTTEDTATYFCARGNPHYSFGFNIWGPGTLVTVSL
VL: DIVMTQTPASVSEPVGGTVTINCQASESIYSWLSWYQQKPGQPPKLLIYSASYLASGVPSQFRGSGSGTEYTLTISDLECADAATYYCQYNYDSGDGITNGFGGGTEVVVKG
notes: Rabbit monoclonal; also called clone R166.H10
not listed: AS154 VHH [5] | AS675 VHH [6] | AS200 VHH [7]
binds: all other assays above

B6: R166.E3 (antibody, V domains shown)
VH: QSLEESGGRLVTPGTPLTLTCTVSGIDLSSCVLIWVRQAPEKGLEWIGFIYGSGNAYYANWAKGRFTISKTSSTTVDLKITSPTTEDTATYFCARSQEDDSFGYGFNLWGQGTLVTVSS
VL: AYDMTQTPASVEVAVGGTVTINCQASQSIGTYLSWYQQKPGQPPKLLIYRASTLTSGVSSRFKGSGSGTQFTLTISGVECADAATYYCQEGYSDINVNNIFGGGTEVVVKG
notes: Rabbit monoclonal; also called clone R166.E3
not listed: AS154 VHH [5] | AS675 VHH [6] | AS200 VHH [7]
binds: all other assays above

B7: R166.G3 (antibody, V domains shown)
VH: QSVEESGGRLVTPGTPLTLTCTVSGIDLSRYAMGWVRQAPGKGLEYIGIIGYGGNTNYANWAKGRFTISKTSSTTVDLKMTSPTTEDTATYFCARDNKSGGNNGYPYYGLDLWGPGTLVTVSS
VL: AYDMTQTPASVEVPVGGTVTINCQASQSISSHLAWYQQKRGQPPKVLIYYASTLASGVSSRFKGSGSGTEYTLTISGVECADAATYFCHQSYSGSDVDNTFGGGTEVVVRG
notes: Rabbit monoclonal; also called clone R166.G3
not listed: AS154 VHH [5] | AS675 VHH [6] | AS200 VHH [7]
binds: all other assays above
